Data reported in patent US20170081400A1 (CEPHALON, published 2017).

Key:
[1] = target: T1, human TL1A extracellular domain with N-terminal HIS and FLAG tag (human) (UniProt O95150); experiment: cell-based or functional assay
T1 sequence: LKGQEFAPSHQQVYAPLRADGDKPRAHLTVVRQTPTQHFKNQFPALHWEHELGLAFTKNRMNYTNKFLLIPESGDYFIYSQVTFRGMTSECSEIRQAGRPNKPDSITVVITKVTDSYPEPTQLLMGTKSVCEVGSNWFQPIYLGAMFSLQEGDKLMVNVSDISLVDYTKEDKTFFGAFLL

[2] = target: T2, human TL1A extracellular domain with N-terminal HIS and FLAG tag (human, UniProt O95150 72-251); experiment: SPR run 3; supernatant on Protein A; TL1A 10 ug/mL; timepoint 59
T2 construct: whole entry named. ~70 kDa fraction purified by gel filtration
T2 sequence: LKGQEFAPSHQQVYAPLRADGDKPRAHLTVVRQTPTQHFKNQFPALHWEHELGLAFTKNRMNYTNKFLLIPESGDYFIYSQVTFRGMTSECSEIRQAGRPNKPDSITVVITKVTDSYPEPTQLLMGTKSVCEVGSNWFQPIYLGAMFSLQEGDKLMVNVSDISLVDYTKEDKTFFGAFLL
Description: (§1) 1.5. Antibody expression and antigen binding as determined by SPR. Using a CM5 sensor chip (GE Healthcare) Protein A (Pierce) was coupled to the chip surface using an amine coupling kit (GE Healthcare). Protein A was coupled on flow cell 1 and 2 (or alternatively 3 and 4) using a BIACORE® T200. […] The amount of supernatant or purified protein (as well as the concentration) injected during the capture stage varied between runs and is specified in the header of the Tables 3-11. At the end of injection of the supernatant or purified antibody the change in response units was measured. This value was reported as Capture Level in Tables 3-11. […] The response units were measured prior to the end of the dissociation phase. […] The sensorgrams were double referenced (flow cell 2 is subtracted from flow cell 1 and a buffer blank). As there were a large number of antibody variants to screen, these were screened across different runs (Tables 3-11). […] A summary of the conditions used in each run is below:
(§2) 2.1. […] In some experiment the antibodies were purified using Protein A chromatography (See 1.4) and purified antibodies were used in BIACORE® (GE Healthcare) experiments.

[3] = target: T2, human TL1A extracellular domain with …; experiment: SPR run 3; supernatant on Protein A; TL1A 10 ug/mL; timepoint 590
Description: as §1, §2

B1: 320-263 (antibody, human IgG1, name in Kabat numbering, V domains shown)
VH: QVQLVQSGAEVKKPGASVKVSCKASGYTFTSYDINWVRQAPGQGLEWMGWLNPNSGNTGYAQKFQGRVTMTADRSTSTAYMELSSLRSEDTAVYYCAREVPETAAFEYWGQGTLVTVSS
VL: QSVLTQPPSVSGAPGQRVTISCTSSSSDIGKGLGVHWYQQLPGTAPKLLIEGYYNRPSGVPDRFSGSKSGTSASLTITGLLPEDEGDYYCQSYDGTLSALFGGGTKLTVLG
notes: human IgG1, lambda
Antibody IC50, TL1A induced caspase potency assay in TF-1 cells [1]: 3 ng/mL | Fold improvement over 320-179, TL1A induced caspase potency assay in TF-1 cells [1]: 3 fold | TL1A Binding Level (Early) [2]: 121 RU | TL1A Binding Level (Late) [3]: 123 RU

B2: 320-299 (antibody, human IgG1, name in Kabat numbering, V domains shown)
VH: QVQLVQSGAEVKKPGASVKVSCKASGYTFTSYDINWVRQAPGQGLEWMGWLNPNSGNTGYAQKFQGRVTMTADRSTSTAYMELSSLRSEDTAVYYCAREVPETAAFEYWGQGTLVTVSS
VL: QSVLTQPPSVSGAPGQRVTISCTSSSSDIGAGLGLHWYQQLPGTAPKLLIEGYYNRPSGVPDRFSGSKSGTSASLTITGLLPEDEGDYYCQSYDGTLSALFGGGTKLTVLG
notes: human IgG1, lambda
TL1A Binding Level (Early) [2]: 51 RU | TL1A Binding Level (Late) [3]: 13 RU

B3: 320-294 (antibody, human IgG1, name in Kabat numbering, V domains shown)
VH: QVQLVQSGAEVKKPGASVKVSCKASGYTFTSYDINWVRQAPGQGLEWMGWLNPNSGNTGYAQKFQGRVTMTADRSTSTAYMELSSLRSEDTAVYYCAREVPETAAFEYWGQGTLVTVSS
VL: QSVLTQPPSVSGAPGQRVTISCTSSSSDIGAGLGSHWYQQLPGTAPKLLIEGYYNRPSGVPDRFSGSKSGTSASLTITGLLPEDEGDYYCQSYDGTLSALFGGGTKLTVLG
notes: human IgG1, lambda
TL1A Binding Level (Early) [2]: 79 RU | TL1A Binding Level (Late) [3]: 61 RU

B4: 320-310 (antibody, human IgG1, name in Kabat numbering, V domains shown)
VH: QVQLVQSGAEVKKPGASVKVSCKASGYTFTSYDINWVRQAPGQGLEWMGWLNPNSGNTGYAQKFQGRVTMTADRSTSTAYMELSSLRSEDTAVYYCAREVPETAAFEYWGQGTLVTVSS
VL: QSVLTQPPSVSGAPGQRVTISCTSSSSDIGAGLGVHWYQQLPGTAPKLLIEGYYNRPSGVPDRFSGSKSGTSASLTITGLLPEDEGDYYCASYDGTLSALFGGGTKLTVLG
notes: human IgG1, lambda
TL1A Binding Level (Early) [2]: 70 RU | TL1A Binding Level (Late) [3]: 62 RU

B5: 320-304 (antibody, human IgG1, name in Kabat numbering, V domains shown)
VH: QVQLVQSGAEVKKPGASVKVSCKASGYTFTSYDINWVRQAPGQGLEWMGWLNPNSGNTGYAQKFQGRVTMTADRSTSTAYMELSSLRSEDTAVYYCAREVPETAAFEYWGQGTLVTVSS
VL: QSVLTQPPSVSGAPGQRVTISCTSSSSDIGAGLGVQWYQQLPGTAPKLLIEGYYNRPSGVPDRFSGSKSGTSASLTITGLLPEDEGDYYCQSYDGTLSALFGGGTKLTVLG
notes: human IgG1, lambda
TL1A Binding Level (Early) [2]: 103 RU | TL1A Binding Level (Late) [3]: 82 RU

B6: 320-306 (antibody, human IgG1, name in Kabat numbering, V domains shown)
VH: QVQLVQSGAEVKKPGASVKVSCKASGYTFTSYDINWVRQAPGQGLEWMGWLNPNSGNTGYAQKFQGRVTMTADRSTSTAYMELSSLRSEDTAVYYCAREVPETAAFEYWGQGTLVTVSS
VL: QSVLTQPPSVSGAPGQRVTISCTSSSSDIGAGLGVKWYQQLPGTAPKLLIEGYYNRPSGVPDRFSGSKSGTSASLTITGLLPEDEGDYYCQSYDGTLSALFGGGTKLTVLG
notes: human IgG1, lambda
TL1A Binding Level (Early) [2]: 147 RU | TL1A Binding Level (Late) [3]: 133 RU

B7: 320-303 (antibody, human IgG1, name in Kabat numbering, V domains shown)
VH: QVQLVQSGAEVKKPGASVKVSCKASGYTFTSYDINWVRQAPGQGLEWMGWLNPNSGNTGYAQKFQGRVTMTADRSTSTAYMELSSLRSEDTAVYYCAREVPETAAFEYWGQGTLVTVSS
VL: QSVLTQPPSVSGAPGQRVTISCTSSSSDIGAGLGVSWYQQLPGTAPKLLIEGYYNRPSGVPDRFSGSKSGTSASLTITGLLPEDEGDYYCQSYDGTLSALFGGGTKLTVLG
notes: human IgG1, lambda
TL1A Binding Level (Early) [2]: 71 RU | TL1A Binding Level (Late) [3]: 32 RU

B8: 320-278 (antibody, human IgG1, V domains shown)
VH: QVQLVQSGAEVKKPGASVKVSCKASGYTFTSYDINWVRQAPGQGLEWMGWLNPNSGNTGYAQKFQGRVTMTADRSTSTAYMELSSLRSEDTAVYYCAREVPETAAFEYWGQGTLVTVSS
VL: QSVLTQPPSVSGAPGQRVTISCTSSSSDIGAGQGVHWYQQLPGTAPKLLIEGYYNRPSGVPDRFSGSKSGTSASLTITGLLPEDEGDYYCQSYDGTLSALFGGGTKLTVLG
notes: human IgG1, lambda
TL1A Binding Level (Early) [2]: 389 RU | TL1A Binding Level (Late) [3]: 374 RU

B9: 320-295 (antibody, human IgG1, name in Kabat numbering, V domains shown)
VH: QVQLVQSGAEVKKPGASVKVSCKASGYTFTSYDINWVRQAPGQGLEWMGWLNPNSGNTGYAQKFQGRVTMTADRSTSTAYMELSSLRSEDTAVYYCAREVPETAAFEYWGQGTLVTVSS
VL: QSVLTQPPSVSGAPGQRVTISCTSSSSDIGAGLGQHWYQQLPGTAPKLLIEGYYNRPSGVPDRFSGSKSGTSASLTITGLLPEDEGDYYCQSYDGTLSALFGGGTKLTVLG
notes: human IgG1, lambda
TL1A Binding Level (Early) [2]: 109 RU | TL1A Binding Level (Late) [3]: 94 RU

B10: 320-309 (antibody, human IgG1, name in Kabat numbering, V domains shown)
VH: QVQLVQSGAEVKKPGASVKVSCKASGYTFTSYDINWVRQAPGQGLEWMGWLNPNSGNTGYAQKFQGRVTMTADRSTSTAYMELSSLRSEDTAVYYCAREVPETAAFEYWGQGTLVTVSS
VL: QSVLTQPPSVSGAPGQRVTISCTSSSSDIGAGLGVYWYQQLPGTAPKLLIEGYYNRPSGVPDRFSGSKSGTSASLTITGLLPEDEGDYYCQSYDGTLSALFGGGTKLTVLG
notes: human IgG1, lambda
TL1A Binding Level (Early) [2]: 47 RU | TL1A Binding Level (Late) [3]: 40 RU

B11: 320-296 (antibody, human IgG1, name in Kabat numbering, V domains shown)
VH: QVQLVQSGAEVKKPGASVKVSCKASGYTFTSYDINWVRQAPGQGLEWMGWLNPNSGNTGYAQKFQGRVTMTADRSTSTAYMELSSLRSEDTAVYYCAREVPETAAFEYWGQGTLVTVSS
VL: QSVLTQPPSVSGAPGQRVTISCTSSSSDIGAGLGDHWYQQLPGTAPKLLIEGYYNRPSGVPDRFSGSKSGTSASLTITGLLPEDEGDYYCQSYDGTLSALFGGGTKLTVLG
notes: human IgG1, lambda
TL1A Binding Level (Early) [2]: 118 RU | TL1A Binding Level (Late) [3]: 104 RU

B12: 320-293 (antibody, human IgG1, name in Kabat numbering, V domains shown)
VH: QVQLVQSGAEVKKPGASVKVSCKASGYTFTSYDINWVRQAPGQGLEWMGWLNPNSGNTGYAQKFQGRVTMTADRSTSTAYMELSSLRSEDTAVYYCAREVPETAAFEYWGQGTLVTVSS
VL: QSVLTQPPSVSGAPGQRVTISCTSSSSDIGAGLGAHWYQQLPGTAPKLLIEGYYNRPSGVPDRFSGSKSGTSASLTITGLLPEDEGDYYCQSYDGTLSALFGGGTKLTVLG
notes: human IgG1, lambda
TL1A Binding Level (Early) [2]: 104 RU | TL1A Binding Level (Late) [3]: 86 RU

B13: 320-267 (antibody, human IgG1, V domains shown)
VH: QVQLVQSGAEVKKPGASVKVSCKASGYTFTSYDINWVRQAPGQGLEWMGWLNPNSGNTGYAQKFQGRVTMTADRSTSTAYMELSSLRSEDTAVYYCAREVPETAAFEYWGQGTLVTVSS
VL: QSVLTQPPSVSGAPGQRVTISCTSSSSDIGAALGVHWYQQLPGTAPKLLIEGYYNRPSGVPDRFSGSKSGTSASLTITGLLPEDEGDYYCQSYDGTLSALFGGGTKLTVLG
notes: human IgG1, lambda
TL1A Binding Level (Early) [2]: 299 RU | TL1A Binding Level (Late) [3]: 297 RU

B14: 320-298 (antibody, human IgG1, name in Kabat numbering, V domains shown)
VH: QVQLVQSGAEVKKPGASVKVSCKASGYTFTSYDINWVRQAPGQGLEWMGWLNPNSGNTGYAQKFQGRVTMTADRSTSTAYMELSSLRSEDTAVYYCAREVPETAAFEYWGQGTLVTVSS
VL: QSVLTQPPSVSGAPGQRVTISCTSSSSDIGAGLGKHWYQQLPGTAPKLLIEGYYNRPSGVPDRFSGSKSGTSASLTITGLLPEDEGDYYCQSYDGTLSALFGGGTKLTVLG
notes: human IgG1, lambda
TL1A Binding Level (Early) [2]: 114 RU | TL1A Binding Level (Late) [3]: 100 RU

B15: 320-305 (antibody, human IgG1, name in Kabat numbering, V domains shown)
VH: QVQLVQSGAEVKKPGASVKVSCKASGYTFTSYDINWVRQAPGQGLEWMGWLNPNSGNTGYAQKFQGRVTMTADRSTSTAYMELSSLRSEDTAVYYCAREVPETAAFEYWGQGTLVTVSS
VL: QSVLTQPPSVSGAPGQRVTISCTSSSSDIGAGLGVDWYQQLPGTAPKLLIEGYYNRPSGVPDRFSGSKSGTSASLTITGLLPEDEGDYYCQSYDGTLSALFGGGTKLTVLG
notes: human IgG1, lambda
TL1A Binding Level (Early) [2]: 34 RU | TL1A Binding Level (Late) [3]: 10 RU

B16: 320-277 (antibody, human IgG1, V domains shown)
VH: QVQLVQSGAEVKKPGASVKVSCKASGYTFTSYDINWVRQAPGQGLEWMGWLNPNSGNTGYAQKFQGRVTMTADRSTSTAYMELSSLRSEDTAVYYCAREVPETAAFEYWGQGTLVTVSS
VL: QSVLTQPPSVSGAPGQRVTISCTSSSSDIGAGSGVHWYQQLPGTAPKLLIEGYYNRPSGVPDRFSGSKSGTSASLTITGLLPEDEGDYYCQSYDGTLSALFGGGTKLTVLG
notes: human IgG1, lambda
TL1A Binding Level (Early) [2]: 387 RU | TL1A Binding Level (Late) [3]: 361 RU

B17: 320-308 (antibody, human IgG1, name in Kabat numbering, V domains shown)
VH: QVQLVQSGAEVKKPGASVKVSCKASGYTFTSYDINWVRQAPGQGLEWMGWLNPNSGNTGYAQKFQGRVTMTADRSTSTAYMELSSLRSEDTAVYYCAREVPETAAFEYWGQGTLVTVSS
VL: QSVLTQPPSVSGAPGQRVTISCTSSSSDIGAGLGVWWYQQLPGTAPKLLIEGYYNRPSGVPDRFSGSKSGTSASLTITGLLPEDEGDYYCQSYDGTLSALFGGGTKLTVLG
notes: human IgG1, lambda
TL1A Binding Level (Early) [2]: 106 RU | TL1A Binding Level (Late) [3]: 73 RU
